Results reported in patent US11207340B2, “Tumor suppressor TET1 and uses thereof” (The Chinese University of Hong Kong, priority 2017, dated 2021).
Entries after “also recorded” stand apart in the source; their conditions may differ.

How the values were obtained:
Format in all cases: cell-based, human
[1] = tested on: TET1 promoter; test: Demethylation treatment of silenced tumor cell lines: TET1 promoter methylation by MSP and BGS; details: for TET1 promoter demethylation (unmethylated promoter alleles) by MSP: 10 μmol/L Aza 3 days, without or with TSA ~16 h, silenced tumor cell lines
From the text: Human tumor cell lines of multiple tissue types were used^50-55, including nasopharyngeal (NPC), esophageal squamous cell (ESCC), lung, gastric, colorectal (CRC), hepatocellular (HCC), breast, cervical, renal (RCC), bladder and prostate carcinomas, melanoma, as well as non-Hodgkin (NHL), Hodgkin (HL) and nasal natural killer (NK)/T-cell (NKTCL) lymphomas. Immortalized, non-transformed normal epithelial cell lines were used as “normal” controls. Cell lines were obtained from either American Type Culture Collection or collaborators. When needed, cell lines were treated with 10 μmol/L 5-aza-2′-deoxycytidine (Aza) (Sigma-aldrich, St Louis, Mo.) for 3 days, without or with further treatment with 100 nmol/trichostatin A (TSA) (Cayman Chemical Co., Ann Arbor, Mich.) for additional ˜16 h as previously^50,53. Normal adult and fetal tissue RNA and DNA samples were purchased commercially (Stratagene, La Jolla, Calif.; Millipore-Chemicon, Billerica, Mass.). DNA samples of primary carcinomas, nose swab from suspected NPC patients, as well as surgical margin normal tissues, have been described previously^31,51,52.
(§1) CpG island (CGI) analysis for TET1 promoter and exon 1 was performed using CpG island Searcher (http//ccnt.hsc.usc.edu/cpgislands2). Bisulfite modification of genomic DNA was carried out as described previously^56,57. For MSP analysis, approximately 50 ng of bisulfited DNA for each sample was amplified with methylation- or unmethylation-specific primer set, according to previously reported MSP protocol^58. Bisulfite-treated DNA was also amplified using a set of BGS primers, then cloned into pCR4-TOPO vector (Invitrogen, Carlsbad, Calif.), with 8-10 clones randomly picked and sequenced.

[2] = tested on: TET1; test: Demethylation treatment of silenced tumor cell lines: TET1 expression by semi-quantitative RT-PCR; details: 10 μmol/L Aza 3 days, alone or combined with HDAC inhibitor; nasopharyngeal, esophageal, colon, breast and renal tumor cell lines with methylated TET1
From the text: Human tumor cell lines of multiple tissue types were used^50-55, including nasopharyngeal (NPC), esophageal squamous cell (ESCC), lung, gastric, colorectal (CRC), hepatocellular (HCC), breast, cervical, renal (RCC), bladder and prostate carcinomas, melanoma, as well as non-Hodgkin (NHL), Hodgkin (HL) and nasal natural killer (NK)/T-cell (NKTCL) lymphomas. Immortalized, non-transformed normal epithelial cell lines were used as “normal” controls. Cell lines were obtained from either American Type Culture Collection or collaborators. When needed, cell lines were treated with 10 μmol/L 5-aza-2′-deoxycytidine (Aza) (Sigma-aldrich, St Louis, Mo.) for 3 days, without or with further treatment with 100 nmol/trichostatin A (TSA) (Cayman Chemical Co., Ann Arbor, Mich.) for additional ˜16 h as previously^50,53. Normal adult and fetal tissue RNA and DNA samples were purchased commercially (Stratagene, La Jolla, Calif.; Millipore-Chemicon, Billerica, Mass.). […]
(§2) Semi-quantitative RT-PCR and quantitative real-time PCR were performed as described before^50,53, with GAPDH as a control for all the samples shown in previous publications^31,51,52. qRT-PCR was carried out according to the manufacturer's protocol (HT7900 system; applied Biosystems), with SYBR Green master mix (applied Biosystems) used.

[3] = tested on: HOXA9, HOXA5, PCDH7, TCF4, MEIS1, SLIT2 and ZNF382; test: TSG expression by semi-quantitative RT-PCR and qRT-PCR in TET1-CD-expressing carcinoma cells
Method: as §2
(§3) Human TET1 catalytic domain (TET1-CD) cDNA and its catalytic domain mutant (TET1-CD-mut) clones (Addgene, Cambridge, Mass.) were used as templates to generate TET1 constructs with an N-terminal Flag tag, and subcloned into pcDNA3.1 vector (Invitrogen, Carlsbad, Calif.). Cells were cultured overnight in a 12-well plate and transfected with empty vector or TET1-CD, TET1-CD-mut-expressing plasmids using Lipofectamine 2000 (Invitrogen, Carlsbad, Calif.). Forty-eight hours later, transfectants were replated in triplicate and cultured for 10-15 days in complete medium containing G418. Surviving colonies were stained with crystal violet (0.5% w/v) after methanol fixation, with visible colonies (≥50 cells) counted.

[4] = tested on: HOXA9, SLIT2 and ZNF382 promoters; test: TSG promoter methylation by MSP in TET1-CD-expressing tumor cells
Method: as §1, §3

[5] = tested on: NPC tumor cells (HONE1); test: TUNEL assay; details: compared with vector or TET1-CD-mut controls
Method: Cells cultured on coverslips were fixed with 4% paraformaldehyde, and permeabilized with 0.1% triton X-100. TUNEL (Terminal deoxynucleotidyl transferase dUTP nick end labeling) staining was performed using the In Situ Cell Death Detection Kit (Roche, Mannheim, Germany).

[6] = tested on: NPC, ESCC, gastric, colon and breast tumor cells; test: Colony formation assay of tumor cells; details: ectopic expression
Method: as §3

Molecule	TET1 promoter demethylation (unmethylated promoter alleles) by MSP [1]	TET1 promoter demethylation (unmethylated promoter alleles) by MSP ([1]; listed as Aza)	TET1 promoter CpG sites by BGS analysis ([1]; after Aza treatment, alone or combined with HDAC inhibitor)	TET1 expression after treatment [2]	TSG expression at mRNA levels (HOXA9, HOXA5, PCDH7, TCF4, MEIS1, SLIT2, ZNF382) [3]	methylated alleles of HOXA9, SLIT2 and ZNF382 promoters [4]	unmethylated promoter alleles of HOXA9, SLIT2 and ZNF382 [4]	numbers of apoptotic cells [5]	tumor cell clonogenicity, % of control cells ([6]; NPC, ESCC, gastric, colon and breast tumor cells, vs control cells)	suppression of tumor cell clonogenicity / growth ([6]; colony formation assays of tumor cells of multiple tissue types)
Nc1ncn([C@H]2C[C@H](O)[C@@H](CO)O2)c(=O)n1 [5-aza-dC, 5-aza-2′-deoxycytidine]	increased	demethylated	dramatically demethylated	restoration						
TET1-CD: Human TET1 catalytic domain (Cys-rich and DSBH regions), N-terminal Flag tag, expressed from pcDNA3.1 plasmid; SEQ ID NO:6 (protein, listed as Homo sapiens, N-terminal Flag tag) ELPTCSCLDRVIQKDKGPYYTHLGAGPSVAAVREIMENRYGQKGNAIRIEIVVYTGKEGKSSHGCPIAKWVLRRSSDEEKVLCLVRQRTGHHCPTAVMVVLIMVWDGIPLPMADRLYTELTENLKSYNGHPTDRRCTLNENRTCTCQGIDPETCGASFSFGCSWSMYFNGCKFGRSPSPRRFRIDPSSPLHEKNLEDNLQSLATRLAPIYKQYAPVAYQNQVEYENVARECRLGSKEGRPFSGVTACLDFCAHPHRDIHNMNNGSTVVCTLTREDNRSLGVIPQDEQLHVLPLYKLSDTDEFGSKEGMEAKIKSGAIEVLAPRRKKRTCFTQPVPRSGKKRAAMMTEVLAHKIRAVEKKPIPRIKRKNNSTTTNNSKPSSLPTLGSNTETVQPEVKSETEPHFILKSSDNTKTYSLMPSAPHPVKEASPGFSWSPKTASATPAPLKNDATASCGFSERSSTPHCTMPSGRLSGANAAAADGPGISQLGEVAPLPTLSAPVMEPLINSEPSTGVTEPLTPHQPNHQPSFLTSPQDLASSPMEEDEQHSEADEPPSDEPLSDDPLSPAEEKLPHIDEYWSDSEHIFLDANIGGVAIAPAHGSVLIECARRELHATTPVEHPNRNHPTRLSLVFYQHKNLNKPQHGFELNKIKFEAKEAKNKKMKASEQKDQAANEGPEQSSEVNELNQIPSHKALTLTHDNVVTVSPYALTHVAGPYNHWV					Mild upregulation; also recorded: upregulated	decreased	increased	significantly increased; also recorded: induced	40-50%	inhibited
